Sequences and labels used below:
T1: EsCas13d, nuclease-dead (Eubacterium siraeum, UniProt B0MS50, R295A;H300A;R849A;H854A)
T1 sequence: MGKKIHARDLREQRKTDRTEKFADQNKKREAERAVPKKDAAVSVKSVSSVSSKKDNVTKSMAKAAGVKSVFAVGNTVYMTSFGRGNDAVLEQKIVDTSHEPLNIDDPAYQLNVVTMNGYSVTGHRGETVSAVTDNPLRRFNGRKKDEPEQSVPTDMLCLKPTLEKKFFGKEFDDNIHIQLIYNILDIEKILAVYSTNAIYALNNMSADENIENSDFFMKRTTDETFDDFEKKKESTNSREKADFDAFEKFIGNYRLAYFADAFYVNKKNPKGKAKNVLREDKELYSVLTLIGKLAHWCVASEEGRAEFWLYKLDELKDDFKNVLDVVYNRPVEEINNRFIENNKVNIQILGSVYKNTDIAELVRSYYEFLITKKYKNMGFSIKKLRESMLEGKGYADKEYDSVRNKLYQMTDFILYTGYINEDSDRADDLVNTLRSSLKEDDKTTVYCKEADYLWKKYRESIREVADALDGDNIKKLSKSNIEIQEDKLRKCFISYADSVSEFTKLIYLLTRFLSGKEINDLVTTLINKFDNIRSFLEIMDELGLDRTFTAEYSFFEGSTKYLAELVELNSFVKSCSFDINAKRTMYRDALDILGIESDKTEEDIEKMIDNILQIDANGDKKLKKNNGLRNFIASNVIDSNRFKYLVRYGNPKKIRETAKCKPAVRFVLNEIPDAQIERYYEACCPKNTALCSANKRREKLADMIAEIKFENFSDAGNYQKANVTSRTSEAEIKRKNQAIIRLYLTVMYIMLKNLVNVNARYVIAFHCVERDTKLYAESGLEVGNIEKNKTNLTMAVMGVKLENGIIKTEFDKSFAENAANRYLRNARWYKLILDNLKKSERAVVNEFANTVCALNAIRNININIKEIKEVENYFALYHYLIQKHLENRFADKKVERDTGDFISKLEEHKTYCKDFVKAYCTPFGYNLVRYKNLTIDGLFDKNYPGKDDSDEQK

B1: target 1 insG 3' of 10,insA 3' of 3 (mixed)
RNA 1: CACCCGUGCAAAAAUGCAGGGGUCUAAAACUGAGCGGAUAACCUCUCUAUGG
RNA 2: GGGAAUGGAUCCACAUCUACGAAUUCGUACCAUAGAGAGGUUGAUCCGCUACACCGAGAUCGGAAGAGCACACGU
B2: target 1 insA 3' of 21,insG 3' of 9 (mixed)
RNA 1: CACCCGUGCAAAAAUGCAGGGGUCUAAAACUGAGCGGAUAACCUCUCUAUGG
RNA 2: GGGAAUGGAUCCACAUCUACGAAUUCGUACCAAUAGAGAGGUUAGUCCGCUCACCGAGAUCGGAAGAGCACACGU
B3: target 2 MT 5'PFS UUG 3'PFS AUA (mixed)
RNA 1: CACCCGUGCAAAAUUGCAGGGGUCUAAAACCUUCUCCAAAUUGUUUCAUCCU
RNA 2: GGGAAUGGAUCCACAUCUACGAAUUCUUGAGGAUGAAACAAUUUGGAGAAGAUAAGAUCGGAAGAGCACACGU
B4: target 2 MT 5'PFS CGC 3'PFS CGU (mixed)
RNA 1: CACCCGUGCAAAAUUGCAGGGGUCUAAAACCUUCUCCAAAUUGUUUCAUCCU
RNA 2: GGGAAUGGAUCCACAUCUACGAAUUCCGCAGGAUGAAACAAUUUGGAGAAGCGUAGAUCGGAAGAGCACACGU
B5: target 2 MT 5'PFS GCG 3'PFS UAU (mixed)
RNA 1: CACCCGUGCAAAAUUGCAGGGGUCUAAAACCUUCUCCAAAUUGUUUCAUCCU
RNA 2: GGGAAUGGAUCCACAUCUACGAAUUCGCGAGGAUGAAACAAUUUGGAGAAGUAUAGAUCGGAAGAGCACACGU
B6: target 2 MT 5'PFS GCG 3'PFS ACG (mixed)
RNA 1: CACCCGUGCAAAAUUGCAGGGGUCUAAAACCUUCUCCAAAUUGUUUCAUCCU
RNA 2: GGGAAUGGAUCCACAUCUACGAAUUCGCGAGGAUGAAACAAUUUGGAGAAGACGAGAUCGGAAGAGCACACGU
B7: target 2 MT 5'PFS CGC 3'PFS UUU (mixed)
RNA 1: CACCCGUGCAAAAUUGCAGGGGUCUAAAACCUUCUCCAAAUUGUUUCAUCCU
RNA 2: GGGAAUGGAUCCACAUCUACGAAUUCCGCAGGAUGAAACAAUUUGGAGAAGUUUAGAUCGGAAGAGCACACGU
B8: target 2 MT 5'PFS GCG 3'PFS ACA (mixed)
RNA 1: CACCCGUGCAAAAUUGCAGGGGUCUAAAACCUUCUCCAAAUUGUUUCAUCCU
RNA 2: GGGAAUGGAUCCACAUCUACGAAUUCGCGAGGAUGAAACAAUUUGGAGAAGACAAGAUCGGAAGAGCACACGU
B9: target 2 MT 5'PFS CGC 3'PFS CGC (mixed)
RNA 1: CACCCGUGCAAAAUUGCAGGGGUCUAAAACCUUCUCCAAAUUGUUUCAUCCU
RNA 2: GGGAAUGGAUCCACAUCUACGAAUUCCGCAGGAUGAAACAAUUUGGAGAAGCGCAGAUCGGAAGAGCACACGU
B10: target 2 MT 5'PFS AUG 3'PFS AAC (mixed)
RNA 1: CACCCGUGCAAAAUUGCAGGGGUCUAAAACCUUCUCCAAAUUGUUUCAUCCU
RNA 2: GGGAAUGGAUCCACAUCUACGAAUUCAUGAGGAUGAAACAAUUUGGAGAAGAACAGAUCGGAAGAGCACACGU
B11: target 2 MT 5'PFS GCG 3'PFS ACU (mixed)
RNA 1: CACCCGUGCAAAAUUGCAGGGGUCUAAAACCUUCUCCAAAUUGUUUCAUCCU
RNA 2: GGGAAUGGAUCCACAUCUACGAAUUCGCGAGGAUGAAACAAUUUGGAGAAGACUAGAUCGGAAGAGCACACGU
B12: target 2 MT 5'PFS CAU 3'PFS CUA (mixed)
RNA 1: CACCCGUGCAAAAUUGCAGGGGUCUAAAACCUUCUCCAAAUUGUUUCAUCCU
RNA 2: GGGAAUGGAUCCACAUCUACGAAUUCCAUAGGAUGAAACAAUUUGGAGAAGCUAAGAUCGGAAGAGCACACGU
B13: target 2 MT 5'PFS UUG 3'PFS AUC (mixed)
RNA 1: CACCCGUGCAAAAUUGCAGGGGUCUAAAACCUUCUCCAAAUUGUUUCAUCCU
RNA 2: GGGAAUGGAUCCACAUCUACGAAUUCUUGAGGAUGAAACAAUUUGGAGAAGAUCAGAUCGGAAGAGCACACGU
B14: target 2 MT 5'PFS GCG 3'PFS ACC (mixed)
RNA 1: CACCCGUGCAAAAUUGCAGGGGUCUAAAACCUUCUCCAAAUUGUUUCAUCCU
RNA 2: GGGAAUGGAUCCACAUCUACGAAUUCGCGAGGAUGAAACAAUUUGGAGAAGACCAGAUCGGAAGAGCACACGU
B15: target 2 MT 5'PFS CGC 3'PFS CGA (mixed)
RNA 1: CACCCGUGCAAAAUUGCAGGGGUCUAAAACCUUCUCCAAAUUGUUUCAUCCU
RNA 2: GGGAAUGGAUCCACAUCUACGAAUUCCGCAGGAUGAAACAAUUUGGAGAAGCGAAGAUCGGAAGAGCACACGU
B16: target 2 MT 5'PFS CAU 3'PFS CUU (mixed)
RNA 1: CACCCGUGCAAAAUUGCAGGGGUCUAAAACCUUCUCCAAAUUGUUUCAUCCU
RNA 2: GGGAAUGGAUCCACAUCUACGAAUUCCAUAGGAUGAAACAAUUUGGAGAAGCUUAGAUCGGAAGAGCACACGU
B17: target 2 MT 5'PFS UAA 3'PFS CCA (mixed)
RNA 1: CACCCGUGCAAAAUUGCAGGGGUCUAAAACCUUCUCCAAAUUGUUUCAUCCU
RNA 2: GGGAAUGGAUCCACAUCUACGAAUUCUAAAGGAUGAAACAAUUUGGAGAAGCCAAGAUCGGAAGAGCACACGU
B18: target 2 MT 5'PFS ACC 3'PFS CUU (mixed)
RNA 1: CACCCGUGCAAAAUUGCAGGGGUCUAAAACCUUCUCCAAAUUGUUUCAUCCU
RNA 2: GGGAAUGGAUCCACAUCUACGAAUUCACCAGGAUGAAACAAUUUGGAGAAGCUUAGAUCGGAAGAGCACACGU
B19: target 2 MT 5'PFS ACC 3'PFS CUC (mixed)
RNA 1: CACCCGUGCAAAAUUGCAGGGGUCUAAAACCUUCUCCAAAUUGUUUCAUCCU
RNA 2: GGGAAUGGAUCCACAUCUACGAAUUCACCAGGAUGAAACAAUUUGGAGAAGCUCAGAUCGGAAGAGCACACGU
B20: target 2 MT 5'PFS AUG 3'PFS AAA (mixed)
RNA 1: CACCCGUGCAAAAUUGCAGGGGUCUAAAACCUUCUCCAAAUUGUUUCAUCCU
RNA 2: GGGAAUGGAUCCACAUCUACGAAUUCAUGAGGAUGAAACAAUUUGGAGAAGAAAAGAUCGGAAGAGCACACGU
B21: target 2 MT 5'PFS GCG 3'PFS UAA (mixed)
RNA 1: CACCCGUGCAAAAUUGCAGGGGUCUAAAACCUUCUCCAAAUUGUUUCAUCCU
RNA 2: GGGAAUGGAUCCACAUCUACGAAUUCGCGAGGAUGAAACAAUUUGGAGAAGUAAAGAUCGGAAGAGCACACGU
B22: target 2 MT 5'PFS CGC 3'PFS CGG (mixed)
RNA 1: CACCCGUGCAAAAUUGCAGGGGUCUAAAACCUUCUCCAAAUUGUUUCAUCCU
RNA 2: GGGAAUGGAUCCACAUCUACGAAUUCCGCAGGAUGAAACAAUUUGGAGAAGCGGAGAUCGGAAGAGCACACGU
B23: target 2 MT 5'PFS ACC 3'PFS CUG (mixed)
RNA 1: CACCCGUGCAAAAUUGCAGGGGUCUAAAACCUUCUCCAAAUUGUUUCAUCCU
RNA 2: GGGAAUGGAUCCACAUCUACGAAUUCACCAGGAUGAAACAAUUUGGAGAAGCUGAGAUCGGAAGAGCACACGU
B24: target 2 MT 5'PFS AUG 3'PFS AAU (mixed)
RNA 1: CACCCGUGCAAAAUUGCAGGGGUCUAAAACCUUCUCCAAAUUGUUUCAUCCU
RNA 2: GGGAAUGGAUCCACAUCUACGAAUUCAUGAGGAUGAAACAAUUUGGAGAAGAAUAGAUCGGAAGAGCACACGU
B25: target 2 MT 5'PFS UUG 3'PFS CUA (mixed)
RNA 1: CACCCGUGCAAAAUUGCAGGGGUCUAAAACCUUCUCCAAAUUGUUUCAUCCU
RNA 2: GGGAAUGGAUCCACAUCUACGAAUUCUUGAGGAUGAAACAAUUUGGAGAAGCUAAGAUCGGAAGAGCACACGU
B26: target 2 MT 5'PFS GCG 3'PFS UAC (mixed)
RNA 1: CACCCGUGCAAAAUUGCAGGGGUCUAAAACCUUCUCCAAAUUGUUUCAUCCU
RNA 2: GGGAAUGGAUCCACAUCUACGAAUUCGCGAGGAUGAAACAAUUUGGAGAAGUACAGAUCGGAAGAGCACACGU
B27: target 2 MT 5'PFS CGC 3'PFS UUC (mixed)
RNA 1: CACCCGUGCAAAAUUGCAGGGGUCUAAAACCUUCUCCAAAUUGUUUCAUCCU
RNA 2: GGGAAUGGAUCCACAUCUACGAAUUCCGCAGGAUGAAACAAUUUGGAGAAGUUCAGAUCGGAAGAGCACACGU

The target of the data set is T1, EsCas13d, nuclease-dead. The data set can be described thus: crRNA (strand 1, pre-loaded); Mg2+; 40 mM Tris-HCl pH 7.5, 150 mM NaCl, 6 mM MgCl2, 1 mM DTT, 0.1% Tween-20, 0.2 mg/ml BSA; 25 C; 10 min per concentration, then washed. The conditions noted are these: tags: His6-TwinStrep-SUMO cleaved; N-terminal SNAP kept (SNAP-Surface 488); label: 3' end held by stalled T7 RNA polymerase.
A word on the Kd: it is the free concentration of one partner at which half of the binding sites on the other are occupied at equilibrium, for simple one-to-one binding. A higher Kd goes with weaker binding. B1 had a Kd of 45 ± 6 nM.

Regarding B2, the Kd came to 46 ± 6 nM.

With B3, the Kd worked out at 9.4 ± 0.8 nM.

The molecule B4 yielded a Kd of 3.5 ± 0.4 nM.

B5 returned a Kd of 14.9 ± 2.4 nM.

B6 had a Kd of 14 ± 2.1 nM.

Molecule B7 registered a Kd of 17 ± 4 nM.

In the case of B8, binding was put at a Kd of 16 ± 4 nM.

Consider B9, for which the affinity, expressed as Kd, was 4.1 ± 0.4 nM.

B10 gave a Kd of 18 ± 6 nM.

Turning to B11, binding was characterised by a dissociation constant (Kd) of 13.8 ± 1.2 nM.

With B12, the dissociation constant Kd came to 4.1 ± 0.6 nM.

For the molecule B13, binding was put at a Kd of 14.1 ± 1.3 nM.

In turn, B14 yielded a Kd of 30 ± 8 nM.

B15 came in with a Kd of 6.7 ± 2.1 nM.

B16 showed a Kd of 4.6 ± 0.6 nM.

In turn, B17 yielded an equilibrium dissociation constant (Kd) of 20 ± 6 nM.

The molecule B18 showed an equilibrium dissociation constant (Kd) of 6.3 ± 1.6 nM.

On to B19, for which the dissociation constant Kd stood at 7.4 ± 1.2 nM.

On to B20, for which the equilibrium dissociation constant (Kd) is 7.8 ± 1.6 nM.

In the case of B21, the equilibrium dissociation constant (Kd) stood at 9.6 ± 2.4 nM.

B22 gave a Kd of 7.3 ± 1.2 nM.

For the molecule B23, the affinity, expressed as Kd, was 9 ± 1.1 nM.

As for B24, the Kd came out at 7.6 ± 1 nM.

As for B25, the dissociation constant (Kd) was determined as 14.9 ± 1.7 nM.

The molecule B26 yielded a Kd of 13.1 ± 3.1 nM.

As to B27, the Kd is 12.1 ± 1.9 nM.
